Data: US20250270343A1 (Alector, published 2025)

T1: mouse GPNMB endogenously expressed on B16F10 cells (mouse, UniProt Q99P91 23-574)
T1 construct: whole, on cells; also called moGPNMB
T1 sequence (looked up): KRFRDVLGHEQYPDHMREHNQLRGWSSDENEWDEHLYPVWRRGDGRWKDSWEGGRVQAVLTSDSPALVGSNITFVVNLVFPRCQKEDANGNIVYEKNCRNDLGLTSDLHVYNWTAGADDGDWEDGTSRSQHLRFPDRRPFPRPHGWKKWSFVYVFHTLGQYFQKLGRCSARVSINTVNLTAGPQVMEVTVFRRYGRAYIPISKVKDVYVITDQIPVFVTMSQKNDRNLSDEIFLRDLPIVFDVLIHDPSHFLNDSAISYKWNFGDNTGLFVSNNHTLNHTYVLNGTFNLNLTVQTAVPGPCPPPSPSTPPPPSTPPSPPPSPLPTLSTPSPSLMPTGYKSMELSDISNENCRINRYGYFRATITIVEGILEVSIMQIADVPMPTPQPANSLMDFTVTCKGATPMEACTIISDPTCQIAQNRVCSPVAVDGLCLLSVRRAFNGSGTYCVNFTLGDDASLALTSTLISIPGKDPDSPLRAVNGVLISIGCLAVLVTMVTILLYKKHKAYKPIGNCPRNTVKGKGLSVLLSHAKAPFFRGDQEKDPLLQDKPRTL

T2: soluble mouse GPNMB (recombinant extracellular domain) (mouse, UniProt Q99P91 23-502)
T2 construct: also called moGPNMB; not shown: C-terminal polyhistidine or Avi-His tag
T2 sequence: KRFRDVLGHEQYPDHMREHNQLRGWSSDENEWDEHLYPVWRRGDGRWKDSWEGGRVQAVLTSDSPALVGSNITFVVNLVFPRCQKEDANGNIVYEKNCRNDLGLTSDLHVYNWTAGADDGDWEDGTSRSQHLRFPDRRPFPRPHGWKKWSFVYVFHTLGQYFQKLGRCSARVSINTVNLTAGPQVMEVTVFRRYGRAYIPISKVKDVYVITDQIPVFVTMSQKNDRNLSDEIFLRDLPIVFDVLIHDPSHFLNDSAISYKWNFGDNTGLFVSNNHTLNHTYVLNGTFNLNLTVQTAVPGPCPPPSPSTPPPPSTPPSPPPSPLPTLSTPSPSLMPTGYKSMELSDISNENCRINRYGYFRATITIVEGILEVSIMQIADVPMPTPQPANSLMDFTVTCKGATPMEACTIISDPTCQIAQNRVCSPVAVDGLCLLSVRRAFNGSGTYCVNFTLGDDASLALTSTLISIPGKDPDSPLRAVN

T3: soluble mouse GPNMB-Fc polypeptide (mouse IgG2A Fc) (mouse, UniProt Q99P91 23-502)
T3 construct: extracellular domain; bought (R&D System); also called moGPNMB-Fc; mGPNMB-Fc; not shown: Fc region of mouse IgG2A
T3 sequence (looked up): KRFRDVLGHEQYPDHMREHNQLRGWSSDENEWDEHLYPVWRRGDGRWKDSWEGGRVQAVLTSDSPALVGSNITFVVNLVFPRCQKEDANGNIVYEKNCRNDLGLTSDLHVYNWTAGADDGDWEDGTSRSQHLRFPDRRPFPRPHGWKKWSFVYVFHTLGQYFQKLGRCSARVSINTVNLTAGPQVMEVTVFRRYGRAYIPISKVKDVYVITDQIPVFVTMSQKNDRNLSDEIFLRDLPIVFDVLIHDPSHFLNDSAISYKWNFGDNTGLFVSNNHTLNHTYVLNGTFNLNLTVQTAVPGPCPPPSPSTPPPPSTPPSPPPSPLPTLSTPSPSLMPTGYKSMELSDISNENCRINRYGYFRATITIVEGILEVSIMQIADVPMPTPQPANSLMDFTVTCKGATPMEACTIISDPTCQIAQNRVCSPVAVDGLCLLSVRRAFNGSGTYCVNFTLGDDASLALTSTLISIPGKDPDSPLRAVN

T4: soluble human GPNMB (recombinant extracellular domain) (human, UniProt Q14956 23-498)
T4 construct: also called huGPNMB; recombinant human GPNMB extracellular domain; not shown: C-terminal polyhistidine or Avi-His tag
T4 sequence: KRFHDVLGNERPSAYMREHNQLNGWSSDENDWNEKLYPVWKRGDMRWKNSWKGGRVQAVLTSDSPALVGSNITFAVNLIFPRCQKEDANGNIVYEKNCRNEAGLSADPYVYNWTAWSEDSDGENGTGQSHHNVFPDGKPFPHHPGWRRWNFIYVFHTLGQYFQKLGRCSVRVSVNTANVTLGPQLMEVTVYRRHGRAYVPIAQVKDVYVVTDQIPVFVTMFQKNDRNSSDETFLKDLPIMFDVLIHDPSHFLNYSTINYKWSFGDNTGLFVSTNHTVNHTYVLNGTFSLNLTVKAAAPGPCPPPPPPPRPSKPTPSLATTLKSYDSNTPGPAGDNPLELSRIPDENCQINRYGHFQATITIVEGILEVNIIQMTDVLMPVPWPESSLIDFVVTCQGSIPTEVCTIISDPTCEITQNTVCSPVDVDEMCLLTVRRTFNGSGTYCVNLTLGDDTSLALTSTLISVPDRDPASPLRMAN

T5: soluble cynomolgus GPNMB (recombinant extracellular domain) (cynomolgus, UniProt Q14956 23-499 (human entry), limits assumed)
T5 chain: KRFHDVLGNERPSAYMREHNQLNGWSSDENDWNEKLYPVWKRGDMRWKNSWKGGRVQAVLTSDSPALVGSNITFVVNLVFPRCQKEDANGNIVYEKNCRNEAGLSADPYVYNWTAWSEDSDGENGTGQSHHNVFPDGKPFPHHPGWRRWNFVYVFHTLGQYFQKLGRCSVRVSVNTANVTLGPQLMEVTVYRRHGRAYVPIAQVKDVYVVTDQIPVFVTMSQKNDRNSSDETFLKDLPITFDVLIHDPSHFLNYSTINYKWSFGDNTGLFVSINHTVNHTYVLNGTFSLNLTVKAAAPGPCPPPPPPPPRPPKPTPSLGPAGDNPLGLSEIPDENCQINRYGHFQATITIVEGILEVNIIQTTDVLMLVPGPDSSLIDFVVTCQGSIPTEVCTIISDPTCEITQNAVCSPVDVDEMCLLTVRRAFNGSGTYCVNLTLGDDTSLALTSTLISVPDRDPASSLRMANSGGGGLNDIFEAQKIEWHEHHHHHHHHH


What was measured:
[1] = target: T1, mouse GPNMB endogenously expressed on …; assay: FACS titration, B16F10 cells
Description: Cell-based binding measurements were also performed to measure the apparent affinities of anti-GPNMB antibodies of the present disclosure to cell-surface expressed GPNMB. Serial dilutions of the monoclonal anti-GPNMB antibodies were added to 100,000 Freestyle293-huGPNMB+ or B16F10 cells and allowed to achieve binding equilibrium at 4° C. After addition of fluorescently labeled secondary antibody and brief washing steps, MFI values as a function of titrated antibody concentration was recorded via FACS analysis. Curves were fit using nonlinear regression analysis with Graphpad Prism 6 software.

[2] = target: T1, mouse GPNMB endogenously expressed on …; assay: FACS, B16F10 cells
Description: Recombinant anti-GPNMB antibodies of the present disclosure were examined for their ability to bind human and/or mouse GPNMB expressed on Freestyle293-huGPNMB+ or B16F10 cells, respectively. B16F10 cells are a murine melanoma cell line from a C57BL/6J mouse that endogenously express high levels of mouse GPNMB. The antibodies were also tested for their ability to bind to a human macrophage cell line (U937 cells) engineered to express human GPNMB. Cells were harvested, plated at 100,000 cells/well in a 96-well round bottom plate, and incubated in 100 μl FACS buffer (PBS containing 2% FBS, 2 mM EDTA) containing anti-GPNMB monoclonal antibodies of the present disclosure for 30 minutes on ice. Cells were then washed and incubated in 100 ul FACS buffer containing 1 μg/ml APC-conjugated anti-human IgG secondary antibody for 30 minutes in ice. Cells were washed twice in cold FACS buffer and acquired on a BD FACS Canto. Data analysis and calculation of MFI values was performed with FlowJo (TreeStar) software version 10.0.7. […]

[3] = target: T2, soluble mouse GPNMB (recombinant …); assay: SPR Carterra, Ab immobilized
Description: Binding kinetics of human anti-GPNMB IgG1 antibodies of the present disclosure to human, cynomolgus, and mouse GPNMB were evaluated using a Carterra LSA instrument (Carterra, Salt Lake City, UT). […] A HC200M sensor chip (Carterra) was activated using the single channel flow cell with a 7-minute injection of a 1:1:1 mixture of 100 mM MES pH 5.5, 100 mM sulfo-NHS, 400 mM EDC (all reconstituted in MES pH 5.5; 100 μl of each mixed in vial immediately before running assay). After switching to the multi-channel array flow cell, the antibodies were injected over the activated chip in a 96-spot array for 15 minutes. The remaining unconjugated active groups on the chip were then blocked by injecting 1M Ethanolamine pH 8.5 (Carterra) for 7 minutes using the single channel flow cell.
After priming with running buffer (HBS-EP+, Teknova) with 0.5 mg/ml BSA (Sigma), the immobilized anti-GPNMB antibodies were tested for their ability to bind to several forms of recombinant GPNMB extracellular domain, including human, cynomolgus, and mouse orthologs as described above. Estimates of affinity were generated by injecting each analyte over the entire antibody array using the single channel flow cell. GPNMB analytes were diluted to 2.5, 7.4, 22, 67, 200, and 600 nM in running buffer, and injected in serial from lowest to highest concentration without regeneration. Two buffer blanks were run between each series (one species per series). Data were processed and analyzed using Kinetics high-throughput kinetics analysis software (Carterra).

[4] = target: T3, soluble mouse GPNMB-Fc polypeptide …; assay: FACS, enhancing of moGPNMB-Fc binding to SVEC4-10 cells
Description: Purified full-length anti-GPNMB antibodies of the present disclosure were evaluated for their ability to block binding of moGPNMB-Fc to SVEC4-10 cells to determine the ligand blocking potency of each anti-GPNMB monoclonal antibody. Briefly, 2 μg/mL moGPNMB-Fc (mouse IgG2A Fc) diluted in binding buffer was pre-complexed with increasing concentrations of anti-GPNMB antibody of the present disclosure or human IgG1 isotype control antibody in 96-well plates. Subsequently, 100,000 SVEC4-10 cells were added per well and incubated on ice for 30 minutes. Soluble moGPNMB-Fc bound to cell surface was detected with fluorescent anti-mouse IgG2A secondary antibody and measured on FACSCanto. (FIG. 5A and FIG. 5B) IC50 values (for antibodies that block moGPNMB-Fc cell binding) and EC50 values (for antibodies that enhance moGPNMB-Fc cell binding) based on changes in MFI values were calculated (average+standard error) for each anti-GPNMB antibody and listed in Table 6. In Table 6, NA indicates no activity. […] In all cases, certain anti-GPNMB antibodies of the present disclosure blocked soluble GPNMB binding to cells, while other anti-GPNMB antibodies of the present disclosure enhanced soluble GPNMB binding to cells.

[5] = target: T4, soluble human GPNMB (recombinant …); assay: SPR Carterra, Ab amine-coupled
Description: (§1) Additionally, one of the anti-GPNMB antibodies of the present disclosure was evaluated using a Carterra LSA instrument (Carterra, Salt Lake City, UT). Briefly, the anti-GPNMB antibody was immobilized in duplicate spots onto an HC30M sensor chip (Carterra) by amine coupling according to the instrument manufacturer's recommended protocol. After priming with running buffer (see above) the immobilized antibody was tested for its ability to bind to recombinant human, cynomolgus, and mouse GPNMB. Analytes were diluted to 600 nM in running buffer, then further diluted 3-fold serially to 200 nM, 67 nM, 22.2 nM, 7.4 nM, and 2.5 nM. Analyte at each concentration was injected for five minutes over the entire chip using the single channel flow cell. Dissociation was measured for 5 min, followed by regeneration of the chip with two 30-second injections of 10 mM glycine, pH 2.0. The data were analyzed using the NextGenKIT high-throughput kinetics analysis software from Carterra.

[6] = target: T2, soluble mouse GPNMB (recombinant …); assay: SPR Carterra, Ab amine-coupled
Description: as §1

[7] = target: T5, soluble cynomolgus GPNMB (recombinant …); assay: SPR Carterra, Ab amine-coupled
Description: as §1

Row | EC50 [1] | MFI fold over background [2] | Kd [3] | koff [3] | kon [3] | EC50 [4] | Kd [5] | koff [5] | kon [5] | Kd [6] | koff [6] | kon [6] | Kd [7] | koff [7] | kon [7] | Binder
1 | 17.8 nM | 20.9 fold | < 0.3 nM | < 1e-05 s⁻¹ | 40000 M⁻¹ s⁻¹ | 0.79 nM |  |  |  |  |  |  |  |  |  | anti-GPNMB antibody GPN-33 (antibody, human IgG1, V domains shown, chimeric) VH: EVQLVESGGSLVQPGGSLKLSCVASGYTFSNYWMDWVRQTPGKSLEWIGEINTDGSKTNYAPSIKDRFTISRDNAKSTLYLQMSNVKADDTAIYYCTRGPGAWGQGTSVTVSS VL: DIVMTQTPLSLSVAIGQSASISCKSSQSLKFSDGKTYLNWVFQSPGQSPKRLIYQVSKLDSGVPDRFSGTGSETDFILKISRVEAEDLGVYYCCQGSYSPWTIGGGTKLELK
2 |  |  |  |  |  |  | 135 nM | 0.0098 s⁻¹ | 76000 M⁻¹ s⁻¹ | 12 nM | 0.0019 s⁻¹ | 180000 M⁻¹ s⁻¹ | 107 nM | 0.01 s⁻¹ | 97000 M⁻¹ s⁻¹ | anti-GPNMB antibody GPN-81 (antibody, V domains shown, humanized GPN-52) VH: QVQLQESGPGLVKPSETLSLTCTVSGISITTGNYRWSWIRQPPGKGLEWIGYIYYSGTITYNPSLKSRVTITRDTSKNQFSLELSSVTAADTAVYYCARDLTHWYFDVWGQGTLVTVSS VL: DIVMTQSPDSLAVSLGERATINCKSSESVDYYGIGFLNWYQQKPGQPPKLLIYAASTQGSGVPDRFSGSGSGTDFTLTISSLQAEDVAVYYCQQSKEVPPTFGGGTKVEIK
